The results in this text go back to patent publication US20050164361A1 (published 2005).

Where no end group is shown, it is not given here.

Data set [1] concerns the molecule itself. Nature of the data set: self-assembly into a β-sheet bilayer, FIG. 8.
Data set [2] deals with the molecule itself. Nature of the data set: fibril formation kinetics (self-assembly), FIG. 5A.
Data set [3] deals with the molecule itself. Nature of the data set: fibril formation kinetics (self-assembly), FIG. 5B.

B1: Aβ(16-22) (amino acid residues 16-22 of SEQ ID NO: 1), CH3CO-KLVFFAE-NH2 (peptide)
peptide: Ac-KLVFFAE-NH2
modifications: also: self-assembles into β-sheets, nanotubes
notes: Assembles with itself into β-sheets, a rectangular bilayer, helical ribbons and nanotubes
Consider B1, for which the binding result in data set [1] is listed as “binds”.

B2: Aβ(10-21) (amino acid residues 10-21 of SEQ ID NO: 1) (peptide)
peptide: YEVHHQKLVFFA
modifications: not fully specified
notes: Segment of β-amyloid that assembles with itself into fibrils; Many copies stand in the assembly
For B2, the binding result in data set [2] was “binds”.

B3: Aβ(10-21)H13Q (SEQ ID NO: 3) (peptide)
peptide: YEVQHQKLVFFA
notes: Aβ(10-21) with a modified amino acid residue 13 (H13Q)
On to B3, for which the binding result in data set [3] is on record as “binds”.
